The text below walks through data of patent US20040197862A1.

Test [1] deals with HLA-DR2b (DRA, DRB1*1501), soluble, thrombin-cleaved DR/CLIP complex (human).
Test [2] addresses HLA-DR1 (DRA, DRB1*0101), soluble, thrombin-cleaved DR/CLIP complex (human).

In turn, HIV p24 (1-22) peptide displayed an IC50 in test [1] of 8 µM.
The same measure, in the same setting: next, HIV p24 (51-72) peptide: 10.8 µM; HIV p24 (111-132) peptide: 10.8 µM.
Still for that read-out and setting: the value for HIV p24 (161-182) peptide was 9 µM; that for HIV p24 (171-192) peptide was 0.9 µM.
Consider HIV p24 (191-212) peptide, for which the figures for the IC50 in test [2] and in test [1] were 1.6 µM and 3 µM, respectively.
